Experimental data published in patent publication US20190134153A1, “IMMUNOMODULATORY EFFECT OF INHALED KINASE INHIBITOR PEPTIDES IN LUNG” (MOERAE MATRIX, INC., priority 2017, published 2019).

Assays:
Assay in all cases: Kinase Profiling Assay
Assay type in all cases: biochemical
Conditions in all cases: 100 μM
Tie2(h) = Tie2(h) (Homo sapiens, UniProt Q02763)
FGFR2(h) = FGFR2(h) (Homo sapiens, UniProt P21802)
CaMKIIγ(h) = CaMKIIγ(h) (Homo sapiens, UniProt Q13555)
CDK2/cyclinE(h) = CDK2/cyclinE(h) (Homo sapiens, UniProt P24941)
SGK2(h) = biological target: T1, SGK2(h) (Homo sapiens, UniProt Q9HBY8)
T1 sequence (Q9HBY8 1-367): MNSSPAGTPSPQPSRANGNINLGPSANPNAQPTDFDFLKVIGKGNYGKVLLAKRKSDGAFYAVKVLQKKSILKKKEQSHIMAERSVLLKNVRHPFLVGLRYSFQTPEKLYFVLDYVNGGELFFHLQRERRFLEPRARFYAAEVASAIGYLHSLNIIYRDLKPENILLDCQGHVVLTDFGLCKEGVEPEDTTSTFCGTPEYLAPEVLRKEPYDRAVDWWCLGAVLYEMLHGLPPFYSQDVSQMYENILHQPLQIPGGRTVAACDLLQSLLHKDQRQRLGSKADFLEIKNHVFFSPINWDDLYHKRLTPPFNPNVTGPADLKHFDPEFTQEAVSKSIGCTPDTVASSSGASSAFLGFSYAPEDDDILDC

LKB1(h) = biological target: T2, LKB1(h) (Homo sapiens, UniProt Q15831)
T2 sequence (Q15831 1-433): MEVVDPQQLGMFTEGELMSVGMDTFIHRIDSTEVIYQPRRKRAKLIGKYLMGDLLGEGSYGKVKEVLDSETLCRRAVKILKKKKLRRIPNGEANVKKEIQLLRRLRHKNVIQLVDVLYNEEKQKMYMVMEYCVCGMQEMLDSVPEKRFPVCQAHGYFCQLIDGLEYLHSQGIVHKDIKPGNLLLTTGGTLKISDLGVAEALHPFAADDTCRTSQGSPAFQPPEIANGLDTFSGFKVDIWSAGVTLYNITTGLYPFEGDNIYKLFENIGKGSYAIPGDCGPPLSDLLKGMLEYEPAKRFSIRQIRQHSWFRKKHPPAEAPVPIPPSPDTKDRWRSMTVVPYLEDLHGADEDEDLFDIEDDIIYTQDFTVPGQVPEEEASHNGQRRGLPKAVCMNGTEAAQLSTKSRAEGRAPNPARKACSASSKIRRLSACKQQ
T2 sequence (Q7RTN6 1-431 partner): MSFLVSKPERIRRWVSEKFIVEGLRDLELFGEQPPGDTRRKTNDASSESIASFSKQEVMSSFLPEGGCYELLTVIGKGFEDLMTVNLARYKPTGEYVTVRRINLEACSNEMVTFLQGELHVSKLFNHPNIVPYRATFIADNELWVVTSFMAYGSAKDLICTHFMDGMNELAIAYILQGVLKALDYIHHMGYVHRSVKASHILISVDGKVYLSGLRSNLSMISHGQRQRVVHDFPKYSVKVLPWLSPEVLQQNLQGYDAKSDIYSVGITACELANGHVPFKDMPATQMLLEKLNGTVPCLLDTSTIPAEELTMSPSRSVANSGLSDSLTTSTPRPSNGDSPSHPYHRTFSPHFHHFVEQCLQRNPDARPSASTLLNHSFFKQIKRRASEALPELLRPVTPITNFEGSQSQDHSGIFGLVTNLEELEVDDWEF
T2 sequence (Q9Y376 1-341 partner): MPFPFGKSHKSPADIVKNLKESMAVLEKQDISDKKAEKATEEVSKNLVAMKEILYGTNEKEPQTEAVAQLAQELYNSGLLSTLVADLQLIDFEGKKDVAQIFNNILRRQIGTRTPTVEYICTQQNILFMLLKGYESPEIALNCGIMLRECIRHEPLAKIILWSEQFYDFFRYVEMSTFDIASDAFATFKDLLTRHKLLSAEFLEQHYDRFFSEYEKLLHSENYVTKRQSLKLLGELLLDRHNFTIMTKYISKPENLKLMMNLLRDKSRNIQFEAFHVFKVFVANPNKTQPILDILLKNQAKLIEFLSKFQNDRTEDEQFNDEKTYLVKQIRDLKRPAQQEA

EphB2(h) = biological target: T3, EphB2(h) (Homo sapiens, UniProt P29323)
T3 sequence (P29323 19-1055): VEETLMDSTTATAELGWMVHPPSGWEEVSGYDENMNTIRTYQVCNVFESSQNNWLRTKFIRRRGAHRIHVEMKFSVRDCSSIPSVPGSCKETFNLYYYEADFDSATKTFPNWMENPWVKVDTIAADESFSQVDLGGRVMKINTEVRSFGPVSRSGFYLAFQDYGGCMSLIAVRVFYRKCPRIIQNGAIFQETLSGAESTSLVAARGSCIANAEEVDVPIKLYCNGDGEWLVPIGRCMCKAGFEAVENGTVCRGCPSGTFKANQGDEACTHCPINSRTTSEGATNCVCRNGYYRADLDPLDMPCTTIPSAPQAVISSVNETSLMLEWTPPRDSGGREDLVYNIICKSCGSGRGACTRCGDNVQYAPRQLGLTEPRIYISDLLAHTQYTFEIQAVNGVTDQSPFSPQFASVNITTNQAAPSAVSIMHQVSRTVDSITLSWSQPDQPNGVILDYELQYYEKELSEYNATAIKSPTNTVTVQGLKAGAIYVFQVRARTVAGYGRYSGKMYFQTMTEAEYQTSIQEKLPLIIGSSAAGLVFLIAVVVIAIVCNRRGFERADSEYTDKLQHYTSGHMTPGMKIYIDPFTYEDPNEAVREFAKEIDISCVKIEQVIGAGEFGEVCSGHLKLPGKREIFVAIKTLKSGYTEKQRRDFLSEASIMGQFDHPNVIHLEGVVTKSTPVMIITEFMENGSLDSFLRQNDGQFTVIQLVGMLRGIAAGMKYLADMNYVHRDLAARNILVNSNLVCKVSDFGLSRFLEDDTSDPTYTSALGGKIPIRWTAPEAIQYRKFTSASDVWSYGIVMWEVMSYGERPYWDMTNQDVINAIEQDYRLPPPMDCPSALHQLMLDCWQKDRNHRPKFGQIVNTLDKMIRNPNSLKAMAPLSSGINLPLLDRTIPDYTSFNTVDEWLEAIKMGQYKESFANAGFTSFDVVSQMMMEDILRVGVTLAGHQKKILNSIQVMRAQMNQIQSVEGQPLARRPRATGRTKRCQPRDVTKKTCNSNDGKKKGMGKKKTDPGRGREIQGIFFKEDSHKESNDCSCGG

ACK1(h) = ACK1(h) (Homo sapiens, UniProt Q07912)
Chain of ACK1(h) (Q07912 whole entry): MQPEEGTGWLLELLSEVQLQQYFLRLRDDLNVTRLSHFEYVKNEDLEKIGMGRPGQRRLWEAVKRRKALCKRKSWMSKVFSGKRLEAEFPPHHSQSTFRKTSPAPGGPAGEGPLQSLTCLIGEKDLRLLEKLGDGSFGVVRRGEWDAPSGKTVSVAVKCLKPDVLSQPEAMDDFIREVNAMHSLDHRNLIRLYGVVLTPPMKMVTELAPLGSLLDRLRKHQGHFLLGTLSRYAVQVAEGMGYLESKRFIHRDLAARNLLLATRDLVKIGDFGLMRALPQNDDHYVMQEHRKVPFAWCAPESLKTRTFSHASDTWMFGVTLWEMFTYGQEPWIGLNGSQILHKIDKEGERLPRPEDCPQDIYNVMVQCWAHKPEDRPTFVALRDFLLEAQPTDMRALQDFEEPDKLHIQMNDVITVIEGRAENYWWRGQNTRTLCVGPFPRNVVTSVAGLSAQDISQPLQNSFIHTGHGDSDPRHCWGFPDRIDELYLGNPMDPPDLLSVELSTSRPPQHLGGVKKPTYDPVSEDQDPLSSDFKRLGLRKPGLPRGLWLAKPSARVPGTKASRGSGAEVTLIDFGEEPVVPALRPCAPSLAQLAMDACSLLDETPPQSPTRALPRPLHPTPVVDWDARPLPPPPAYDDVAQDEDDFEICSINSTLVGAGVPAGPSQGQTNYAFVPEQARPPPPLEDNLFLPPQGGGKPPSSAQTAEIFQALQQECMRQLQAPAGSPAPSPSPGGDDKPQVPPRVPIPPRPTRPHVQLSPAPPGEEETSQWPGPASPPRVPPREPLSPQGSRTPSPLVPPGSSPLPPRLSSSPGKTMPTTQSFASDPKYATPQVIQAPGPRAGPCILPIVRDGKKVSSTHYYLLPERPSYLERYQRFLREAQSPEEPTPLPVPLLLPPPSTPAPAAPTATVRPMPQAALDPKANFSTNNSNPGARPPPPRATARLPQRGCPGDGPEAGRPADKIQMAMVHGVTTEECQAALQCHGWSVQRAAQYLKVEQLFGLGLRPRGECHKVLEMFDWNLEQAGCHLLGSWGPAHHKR

Chain of Tie2(h) (Q02763 23-1124): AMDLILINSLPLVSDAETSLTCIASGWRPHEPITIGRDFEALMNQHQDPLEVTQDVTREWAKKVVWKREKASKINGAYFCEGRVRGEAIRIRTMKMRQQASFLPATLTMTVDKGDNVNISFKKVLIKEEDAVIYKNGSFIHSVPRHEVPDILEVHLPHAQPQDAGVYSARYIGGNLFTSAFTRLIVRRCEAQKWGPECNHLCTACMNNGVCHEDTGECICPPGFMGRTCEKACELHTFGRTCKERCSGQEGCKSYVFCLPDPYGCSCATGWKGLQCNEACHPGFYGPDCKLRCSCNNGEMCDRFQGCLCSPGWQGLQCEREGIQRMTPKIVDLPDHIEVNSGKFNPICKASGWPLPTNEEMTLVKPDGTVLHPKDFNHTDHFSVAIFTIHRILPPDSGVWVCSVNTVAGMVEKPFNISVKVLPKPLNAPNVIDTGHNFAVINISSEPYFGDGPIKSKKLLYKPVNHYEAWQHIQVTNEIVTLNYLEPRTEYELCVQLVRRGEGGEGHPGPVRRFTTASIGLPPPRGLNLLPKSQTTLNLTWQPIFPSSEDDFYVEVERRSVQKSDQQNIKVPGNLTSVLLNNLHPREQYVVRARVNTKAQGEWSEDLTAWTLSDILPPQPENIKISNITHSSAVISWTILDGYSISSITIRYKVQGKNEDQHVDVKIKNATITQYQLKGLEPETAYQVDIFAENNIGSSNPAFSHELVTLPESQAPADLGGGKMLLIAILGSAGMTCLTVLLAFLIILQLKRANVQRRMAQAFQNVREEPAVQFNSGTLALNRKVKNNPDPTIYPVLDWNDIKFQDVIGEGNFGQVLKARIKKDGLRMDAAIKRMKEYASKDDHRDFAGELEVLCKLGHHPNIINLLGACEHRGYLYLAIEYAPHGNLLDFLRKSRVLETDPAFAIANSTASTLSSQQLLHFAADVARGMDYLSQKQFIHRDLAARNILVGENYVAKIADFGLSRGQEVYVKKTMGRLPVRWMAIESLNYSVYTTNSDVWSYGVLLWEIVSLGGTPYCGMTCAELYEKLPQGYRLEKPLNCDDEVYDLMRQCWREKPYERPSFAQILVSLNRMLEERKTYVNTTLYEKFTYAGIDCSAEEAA
Chain of CaMKIIγ(h) (Q13555 whole entry): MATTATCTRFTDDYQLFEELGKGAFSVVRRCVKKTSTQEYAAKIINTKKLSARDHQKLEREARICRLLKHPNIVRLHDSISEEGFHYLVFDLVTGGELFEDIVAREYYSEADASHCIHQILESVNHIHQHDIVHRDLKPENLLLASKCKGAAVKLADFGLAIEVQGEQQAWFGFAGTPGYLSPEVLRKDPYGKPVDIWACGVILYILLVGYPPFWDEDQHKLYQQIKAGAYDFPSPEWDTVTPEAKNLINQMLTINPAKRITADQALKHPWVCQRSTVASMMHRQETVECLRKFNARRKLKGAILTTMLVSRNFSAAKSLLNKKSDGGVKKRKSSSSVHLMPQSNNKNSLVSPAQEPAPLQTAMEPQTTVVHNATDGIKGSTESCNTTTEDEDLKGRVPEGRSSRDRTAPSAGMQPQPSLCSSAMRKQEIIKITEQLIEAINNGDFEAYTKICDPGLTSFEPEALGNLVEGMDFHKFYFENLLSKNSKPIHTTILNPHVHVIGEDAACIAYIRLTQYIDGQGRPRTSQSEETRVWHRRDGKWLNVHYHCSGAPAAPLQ

Sequence	% activity (Tie2(h))	% activity (FGFR2(h))	% activity (CaMKIIγ(h))	% activity (CDK2/cyclinE(h))	% activity (SGK2(h))	% activity (LKB1(h))	% activity (EphB2(h))	% activity (ACK1(h))
FAKLAARLYRKALARQLGVAA [MMI-0300]	26%	14%	5%	94%	56%	101%	18%	
KAFAKLAARLYRKALARQLGVAA [MMI-0400]	21%	18%	3%	83%	98%	89%	22%	95%
HRRIKAWLKKIKALARQLGVAA [MMI-0500]	22%	12%	3%	19%	−1%	51%	70%	64%
YARAAARQARAKALNRQLGVA [MMI-0200]	53%	73%	94%			99%	128%	97%
